Among the data in US8507655 are Kd values, retold here.

Where a chain is given by its changes, count along the chain named.

Test [1] addresses PA83 protective antigen (Bacillus anthracis, UniProt P13423). Kind of test: SPR.
Target sequence in this assay (P13423 30-764): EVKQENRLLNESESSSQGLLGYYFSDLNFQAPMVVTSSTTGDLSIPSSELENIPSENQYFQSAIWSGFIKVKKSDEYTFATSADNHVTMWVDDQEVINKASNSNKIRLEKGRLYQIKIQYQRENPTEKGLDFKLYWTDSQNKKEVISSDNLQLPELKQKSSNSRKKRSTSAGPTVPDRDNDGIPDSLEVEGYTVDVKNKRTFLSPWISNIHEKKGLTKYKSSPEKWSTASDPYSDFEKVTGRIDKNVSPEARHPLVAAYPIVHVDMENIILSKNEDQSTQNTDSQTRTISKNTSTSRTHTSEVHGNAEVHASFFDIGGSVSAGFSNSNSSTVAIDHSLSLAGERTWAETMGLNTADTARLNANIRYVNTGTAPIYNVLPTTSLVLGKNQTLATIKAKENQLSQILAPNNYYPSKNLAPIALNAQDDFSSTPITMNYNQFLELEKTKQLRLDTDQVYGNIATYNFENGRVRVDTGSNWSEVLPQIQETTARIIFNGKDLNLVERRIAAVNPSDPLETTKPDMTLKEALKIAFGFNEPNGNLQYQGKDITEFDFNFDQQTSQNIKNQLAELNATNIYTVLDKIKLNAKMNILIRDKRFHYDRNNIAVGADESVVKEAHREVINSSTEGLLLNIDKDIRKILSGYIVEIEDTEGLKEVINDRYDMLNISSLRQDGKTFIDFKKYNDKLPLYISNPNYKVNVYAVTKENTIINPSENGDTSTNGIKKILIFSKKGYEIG
For test [2] the target is unchanged. Kind of test: SPR. This is another data set of the same source. On the technique in general: In SPR one partner is held on a chip, and binding of the other changes the refractive index at the surface.
Target sequence in this assay (P13423 30-764): as above

B1: J24-15 (antibody, V domains shown)
VH: QVQLQESGPGLLKPSETLSLTCAVSGDSISGGYYWSWIRQSPGKGLEWIGHIYGSTADTRYNPSLKSRVTISKDTSKNQLSLQLRSVTAADTAVYYCARSGYNFWSGEYYGLDLWGQGAVVTVSS
VL: AIQLTQSPSSLSAYVGDKVTITCHASQGINSWLAWYQQKPGKAPKLLIYKARSLQSGVPSRFSGSGSGTDYTLTISSLQSEDFASYYCLQYDSAPLAFGPGTKLDIK
The molecule B1 came in with a Kd with PA83 protective antigen [1] of 0.88 nM.

B2: v2 (antibody, V domains shown)
VH: B1 VH with G31S, R60K, K66R, L114S
VL: B1 VL with R52S
B2 yielded an equilibrium dissociation constant (Kd) with PA83 protective antigen [1] of 0.66 nM.

B3: J24-7 (antibody, V domains shown)
VH: B1 VH with L114S
VL: B1 VL with H24R, R52S, S56E
In the test with PA83 protective antigen [1], B3 registered a Kd of 0.78 nM.

B4: 35PA83 Fab (parent) (antibody, V domains shown)
VH: GPGLLKPSETLSLTCAVSGDSISGGYYWSWIRQSPGKGLEWIGHIYGSTADTRYNPSLKSRVTISKDTSKNQLSLQLRSVTAADTAVYYCARSGYNFWSGEYYGLDSWGQGAVVTVSS
VL: TQSPSSLSAYVGDKVTITCHASQGINSWLAWYQQKPGKAPKLLIYKASSLQSGVPSRFSGSGSGTDYTLTISSLQSEDFASYYCLQYDSAPLAFGPGTKLDIK
In the test with PA83 protective antigen [1], B4 gave a Kd of 3.4 nM.

B5: 5.15 (antibody, V domains shown)
VH: B4 VH with S117A
VL: B4 VL
With B5, the affinity in the test with PA83 protective antigen [2], expressed as Kd, was 3.5 nM.

B6: 5.20 (antibody, V domains shown)
VH: B4 VH with S69R
VL: B4 VL
In turn, B6 returned a Kd in the test with PA83 protective antigen [2] of 12.2 nM.

As a reminder, the Kd is the constant that tells how readily two partners part at equilibrium. The low end stands for higher affinity, the high end for lower affinity.
